Substitutions are numbered along the chain they refer to.
T1: human CDH6 on tumor cells (OVCAR3 cells, PA-1 cells) (human, UniProt P55285 54-790)
T1 sequence: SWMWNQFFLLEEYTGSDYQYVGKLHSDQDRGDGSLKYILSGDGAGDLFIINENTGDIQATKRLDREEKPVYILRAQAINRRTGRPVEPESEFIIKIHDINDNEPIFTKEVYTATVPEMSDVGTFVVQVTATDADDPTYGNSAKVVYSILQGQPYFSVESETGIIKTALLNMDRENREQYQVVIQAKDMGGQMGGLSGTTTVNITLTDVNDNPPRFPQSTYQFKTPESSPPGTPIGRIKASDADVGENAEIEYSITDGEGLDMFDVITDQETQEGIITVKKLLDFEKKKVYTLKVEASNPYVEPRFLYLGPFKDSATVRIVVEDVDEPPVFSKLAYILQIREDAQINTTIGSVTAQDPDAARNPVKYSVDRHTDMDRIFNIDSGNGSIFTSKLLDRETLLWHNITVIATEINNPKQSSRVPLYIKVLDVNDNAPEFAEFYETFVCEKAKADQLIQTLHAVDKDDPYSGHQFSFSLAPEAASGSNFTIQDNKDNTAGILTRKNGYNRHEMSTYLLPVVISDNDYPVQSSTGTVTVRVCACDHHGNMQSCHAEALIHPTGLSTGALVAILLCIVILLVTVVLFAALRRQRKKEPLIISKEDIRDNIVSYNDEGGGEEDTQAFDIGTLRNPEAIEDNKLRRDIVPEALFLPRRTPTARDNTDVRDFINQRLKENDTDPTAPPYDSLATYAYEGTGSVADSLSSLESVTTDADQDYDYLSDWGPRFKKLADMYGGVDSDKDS

T2: his-tagged human CDH6 extracellular region protein (hCDH6 ECD-his) (human, UniProt P55285 19-615)
T2 construct: also called Human CDH6-his; hCDH6-his; not shown: his tag
T2 sequence: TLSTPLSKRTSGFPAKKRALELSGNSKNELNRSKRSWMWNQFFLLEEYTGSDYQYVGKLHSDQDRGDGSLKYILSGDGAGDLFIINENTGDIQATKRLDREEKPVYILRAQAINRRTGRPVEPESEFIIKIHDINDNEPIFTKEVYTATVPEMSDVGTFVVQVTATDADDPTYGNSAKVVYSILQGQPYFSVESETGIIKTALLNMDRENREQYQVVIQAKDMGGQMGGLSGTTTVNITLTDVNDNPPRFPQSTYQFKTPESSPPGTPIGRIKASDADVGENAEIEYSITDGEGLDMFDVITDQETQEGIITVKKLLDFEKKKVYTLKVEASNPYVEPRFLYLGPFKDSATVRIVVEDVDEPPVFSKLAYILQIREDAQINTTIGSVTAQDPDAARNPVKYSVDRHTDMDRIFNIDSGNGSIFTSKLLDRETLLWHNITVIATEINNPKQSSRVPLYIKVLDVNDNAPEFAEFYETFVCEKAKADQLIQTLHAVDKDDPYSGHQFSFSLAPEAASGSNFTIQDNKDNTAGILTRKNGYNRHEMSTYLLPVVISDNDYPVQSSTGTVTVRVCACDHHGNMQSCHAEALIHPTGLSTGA

B1: hCDH6-14-H1L1 (antibody, V domains shown)
VH: EVQLVQSGAEVKKPGASVKVSCKASGYTFTDNYINWVRQAPGQRLEWMGWIYPGTGNSYYNEKFKGRVTITVDTSASTAYMELSSLRSEDTAVYYCASSYGDSFDYWGQGTTVTVSS
VL: DIQMTQSPSSLSASVGDRVTITCRASQDIRNYLNWYQQKPGKAFKLLISYTSRLHSGVPSRFSGSGSGTDFTFTISSLQPEDIATYYCQQYSQLPWTFGGGTKVEIK
notes: Humanized
B2: hCDH6-14-H1L2 (antibody, V domains shown)
VH: B1 VH
VL: B1 VL with K42G, F44P
notes: Humanized
B3: hCDH6-14-H2L1 (antibody, V domains shown)
VH: B1 VH with V2I
VL: B1 VL
notes: Humanized
B4: hCDH6-14-H2L2 (antibody, V domains shown)
VH: B1 VH with V2I
VL: B1 VL with K42G, F44P
notes: Humanized
B5: hCDH6-14-H3L1 (antibody, V domains shown)
VH: B1 VH with V2I, I70L
VL: B1 VL
notes: Humanized
B6: hCDH6-14-H3L2 (antibody, V domains shown)
VH: B1 VH with V2I, I70L
VL: B1 VL with K42G, F44P
notes: Humanized
B7: hCDH6-14-H4L1 (antibody, V domains shown)
VH: B1 VH with R44G
VL: B1 VL
notes: Humanized
B8: hCDH6-14-H4L2 (antibody, V domains shown)
VH: B1 VH with R44G
VL: B1 VL with K42G, F44P
notes: Humanized
B9: hCDH6-14-H5L1 (antibody, V domains shown)
VH: B1 VH with V5Q
VL: B1 VL
notes: Humanized
B10: hCDH6-14-H5L2 (antibody, V domains shown)
VH: B1 VH with V5Q
VL: B1 VL with K42G, F44P
notes: Humanized
B11: hCDH6-14-H6L1 (antibody, V domains shown)
VH: B1 VH with Y95L
VL: B1 VL
notes: Humanized
B12: hCDH6-14-H6L2 (antibody, V domains shown)
VH: B1 VH with Y95L
VL: B1 VL with K42G, F44P
notes: Humanized
B13: hCDH6-14-H1L3 (antibody, V domains shown)
VH: B1 VH
VL: DIVMTQSPDSLAVSLGERATINCRASQDIRNYLNWYQQKPGQTPKLLISYTSRLHSGVPDRFSGSGSGTDFTLTISSLQAEDVAVYYCQQYSQLPWTFGGGTKVEIK
notes: Humanized
B14: hCDH6-14-H2L3 (antibody, V domains shown)
VH: B1 VH with V2I
VL: B13 VL
notes: Humanized
B15: hCDH6-14-H3L3 (antibody, V domains shown)
VH: B1 VH with V2I, I70L
VL: B13 VL
notes: Humanized
B16: hCDH6-14-H4L3 (antibody, V domains shown)
VH: B1 VH with R44G
VL: B13 VL
notes: Humanized
B17: hCDH6-14-H5L3 (antibody, V domains shown)
VH: B1 VH with V5Q
VL: B13 VL
notes: Humanized

What follows are binders tested against T1, human CDH6 on tumor cells (OVCAR3 …) (assay: FACS, PA-1 cells).
Protocol: OVCAR3 cells with high expression of CDH6 and PA-1 cells with moderate expression of CDH6 were used to detect the binding activity of the antibodies to the cells. […] The cells were washed once with PBS, counted, resuspended to 2×10⁶ cells/mL in an FACS buffer (PBS+2% FBS), and then added to a 96-well plate at 50 μL/well. The chimeric antibodies were diluted with FACS buffer (PBS+2% FBS) and added to the 96-well plate at 50 μL/well, and the plate was incubated at 4° C. for 1 h. […] The dilution was added to the 96-well plate at 50 μL/well, and the plate was incubated at 4° C. for 1 h. After the plates were centrifuged and washed 2 times with PBS, the cells were resuspended in an FACS buffer. The mean fluorescence intensity (MFI) was measured using FACS Canton II (BD). Analysis was performed by the GraphPad Prism software, data were fitted, and EC50 values were calculated. The chimeric antibodies tested had strong binding to both OVCAR3 cells and PA-1 cells.
According to the above sequences, heavy chain (HC) and light chain (LC) plasmids were constructed (the nucleic acid sequences encoding the VH and VL of the antibodies were recombined into an expression vector carrying a signal peptide (SEQ ID NO: 132, […]) and a heavy chain constant region/light chain constant region sequence to obtain recombinant plasmids expressing VH-CH1-Fc/VL-CL). According to the expression and purification methods in Example 2, the hCDH6-14 humanized antibodies were obtained, and the binding activity of the humanized antibodies was detected by ELISA and FACS (see 2.2 and 2.3 for the method).
B1 was tested, and the EC50 was 0.26 nM and the “Max MFI” value was 3680 MFI. In the case of B2, the EC50 is reported as 0.22 nM and the “Max MFI” value is reported as 3600 MFI. B3 was tested, and the EC50 was 0.25 nM and the “Max MFI” value was 3560 MFI. With B4 the EC50 was 0.27 nM and the “Max MFI” value was 3930 MFI. B5 was tested, and the EC50 was 0.26 nM and the “Max MFI” value was 3490 MFI. B6 was tested, and the EC50 was 0.23 nM and the “Max MFI” value was 3490 MFI. B7 was tested, and the EC50 was 0.25 nM and the “Max MFI” value was 3820 MFI. B8 was tested, and the EC50 was 0.26 nM and the “Max MFI” value was 3570 MFI. With B9 the EC50 was 0.25 nM and the “Max MFI” value was 3780 MFI. B10 was tested, and the EC50 was 0.23 nM and the “Max MFI” value was 3320 MFI. With B11 the EC50 was 0.24 nM and the “Max MFI” value was 3700 MFI. For B12, the EC50 was 0.26 nM and the “Max MFI” value was 3540 MFI. B13 was tested, and the EC50 was 0.27 nM and the “Max MFI” value was 3580 MFI. With B14 the EC50 was 0.22 nM and the “Max MFI” value was 3780 MFI. In the case of B15, the EC50 is reported as 0.19 nM and the “Max MFI” value is reported as 3470 MFI. B16 was tested, and the EC50 was 0.27 nM and the “Max MFI” value was 3870 MFI. With B17 the EC50 was 0.21 nM and the “Max MFI” value was 3600 MFI.

These binders were tested against T2, his-tagged human CDH6 extracellular … (assay: ELISA, coated antigen).
Protocol: Human CDH6 protein (hCDH6 ECD-his, conventionally synthesized), monkey CDH6 protein (cynoCDH6 ECD-his, conventionally synthesized; the cynoCDH6 ECD sequence was derived from Uniprot #A0A2K5TW62 (19-615)), and murine CDH6 protein (mCDH6 ECD-his, conventionally synthesized; the mCDH6 ECD sequence was derived from Uniprot #P97326 (19-615)) were diluted with PBS to a final concentration of 1 μg/mL, and added to a 96-well ELISA plate at 100 μL/well. The plate was incubated at 4° C. overnight. The next day, the plate was washed 3 times with a plate washing solution (PBS+0.01% (v/v) Tween 20), and a blocking buffer (PBS+0.01% (v/v) Tween 20+2% (w/w) BSA) was added for blocking at room temperature for 2 h. The blocking buffer was discarded, and the plate was washed 3 times. The chimeric antibodies were diluted with 1% BSA+PBS (purchased from Cytiva, Cat. No. SH30264.01) and added to the 96-well plate at 50 μL/well. After incubation at 37° C. for 2 h, the plate was washed 3 times with a plate washing solution. […] The plate was incubated at 37° C. for 1 h and then washed 5 times with a plate washing solution. A TMB substrate (purchased from Seracare, Cat. No. 5120-0077) was added at 50 μL/well and incubated at room temperature for 10 min, then a stop solution (1.0 N HCl) was added at 50 μL/well. OD450 nm values were read using a microplate reader (Biotek). Analysis was performed by the GraphPad Prism software, data were fitted, and EC50 values were calculated. The chimeric antibodies tested all had strong binding to the human CDH6 protein, the monkey CDH6 protein, and the murine CDH6 protein.
According to the above sequences, heavy chain (HC) and light chain (LC) plasmids were constructed (the nucleic acid sequences encoding the VH and VL of the antibodies were recombined into an expression vector carrying a signal peptide (SEQ ID NO: 132, […]) and a heavy chain constant region/light chain constant region sequence to obtain recombinant plasmids expressing VH-CH1-Fc/VL-CL).
For B1, the EC50 was 0.059 nM and the “Max OD450” value was 2.69 OD450. For B2, the EC50 was 0.128 nM and the “Max OD450” value was 2.84 OD450. For B3, the EC50 was 0.076 nM and the “Max OD450” value was 2.65 OD450. With B4 the EC50 was 0.098 nM and the “Max OD450” value was 2.54 OD450. B5 was tested, and the EC50 was 0.096 nM and the “Max OD450” value was 2.62 OD450. B6 was tested, and the EC50 was 0.074 nM and the “Max OD450” value was 2.63 OD450. With B7 the EC50 was 0.052 nM and the “Max OD450” value was 2.62 OD450. In the case of B8, the EC50 is reported as 0.089 nM and the “Max OD450” value is reported as 2.64 OD450. With B9 the EC50 was 0.079 nM and the “Max OD450” value was 2.81 OD450. B10 was tested, and the EC50 was 0.109 nM and the “Max OD450” value was 2.58 OD450. In the case of B11, the EC50 is reported as 0.067 nM and the “Max OD450” value is reported as 2.7 OD450. With B12 the EC50 was 0.093 nM and the “Max OD450” value was 2.62 OD450. B13 was tested, and the EC50 was 0.056 nM and the “Max OD450” value was 2.68 OD450. B14 was tested, and the EC50 was 0.09 nM and the “Max OD450” value was 2.48 OD450. For B15, the EC50 was 0.113 nM and the “Max OD450” value was 2.56 OD450. With B16 the EC50 was 0.084 nM and the “Max OD450” value was 2.67 OD450. For B17, the EC50 was 0.092 nM and the “Max OD450” value was 2.72 OD450.
